Source: the nanobody polyreactivity screen of Harvey et al. (2022)

Assay: yeast display, Sf9 membrane polyspecificity reagent, FACS + sequencing; frameworks hold sequencing errors
Outline: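 Genes from sorted yeast were amplified by colony PCR, read by MiSeq 2 × 250 sequencing and filtered on CDR length. These cells carried a synthetic nanobody library in Saccharomyces cerevisiae BJ5465 and were sorted by FACS into low and high (top ~1%) gates on anti-HA and streptavidin fluorescence. Polyreactivity is labelled according to the gate of origin.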

Sequence | polyreactivity (PSR sort gate)
QVQLVESGGGLVQAGGSLRLSCAASGSTFPKYAMGWYRQAPGKERELVASISVTTGSTYYADSVKGRFTISRDNAKNTVYLQMNSLKPEDTAVYYCAKRTYSRKFRGAYNYWGQGTQVTVSS | high polyreactivity
QVQLVESGGGLVQAGGSLRLSCAASGRIFLVYAMGWYRQAPGKERELVAAIRSGGSTYYADSVKGRFTISRDNAKNTVYLQMNSLKPEVTAVYYCIADSPWYWVRYGVSRRDYWGQGTQVTVSS | low polyreactivity
QVQLVESGGGLVQEGGSLRLICAASGRTFVYNTMGWYRQAPGKERELVAAITRSGDSTYDADSVKGRFTISRDTAKITVYIHMKSLKPDDTGVYYCNAVSNRYWLKDYWGQGTQVTVSS | high polyreactivity
QVQLVESGGGLDQARGTLRLSCAASGSTILGNAMGWYRHAPGKERELVAGITSGGTTNYADSVKGRFTISRVNAKNNVYLQMTSLKPEDTSVYYCNAGGHLEMNYWGKGTQVTVSS | low polyreactivity
QVHLVESGGGLVQAGGSLRLSCADSGSTFTSYAMGWYRQAPGKERDLVAAINYSGGSTYYADSVKGRFTISRDNAKNTVYLQMNSLKPEDTAVYYCAADGYIRQYVTYYYWGKGTQVTVSS | low polyreactivity
QVQLVESGGGLVQAGGSLRLSCAASGIIFVYYGKGWYRQAPGKERELVAAISWSGDDTYYADSVKGRFTISRDNAKNTVYLQMNSLKPEDTAVYYCAARPGYVHIDFDYWGQGSQVTVSS | low polyreactivity
QVQLVESGGGLVQAGGSLRLSCAASGLTFYRYAMGWYRQAPGKERELVAAITSGTRTYYADSVKGRFTISRDNAKNTVYLQMNSLKPEDTAVYYCAFRQGWYHFRYDYWGQGTQVTVSS | high polyreactivity
QVQLVESGGGLVQAGGSLRLSCAASGRTFTVNPMGWYRQAPGKERELVAAITSGGTTKYADSVKGRFTISRDNAKNTVYLQMNSLKPEDTAVYYCAARVYFPVQYPWFYFEYGYWGQGTQVTVSS | high polyreactivity
QVQLVESGGGLVQAGGSLRLSCAASGRIFGLYTMGWYRQAPGKERELVAAITSRGGRTYYADSVKGRFTLSRDNAKNSVYLQMNSLKPEDTAVYYCAAGGYWSLKYDYWGQGTQVTVSS | high polyreactivity
QVQLVESGGGLVQAGGSLRLSCAASGSIFYVYAMGWYRQAPGKERELVAAISWRGGSTYYADSVKGRFTISRDIAKITVYLQMNSLKPEDTAVYYCNADWSFWGQGTQVTVSS | high polyreactivity
QVQLVESGGGLVQAGGSLRLSCAASGIIFHFNDMGWYRQAPGKERELVAAIDSTGSTNYADSVKGRFTISRDNAKNTVNLQMNSLKPEDTAVYYCAADWTLDPSYGYYADDYWGQGTQVTVSS | low polyreactivity
QVQLVESGGGLVQAGGSLRLSCAASGFTFVIYAMGWYRQAPGKERELVAAIRSGGRTYYADSVKGRFTISRDNAKNTVYLQMNSLKPEDTAVYYCAAVPALKWYGYEYWGQGTQVTVSS | high polyreactivity
QVQLVESGGGLVQAGGSLRLSCAASGSTFIGNAMGWYRQAPGKERELVAAITRSGGSTFYADSVKGRFTISRDNAKNTVYLQMNSLKPEDTAVYYCSAKGNPYRVPGSSYPKVNYWGQGTQVTVSS | high polyreactivity
QVQHVESGGGLVQAGGSLRLSCPASGIIFDYYAMGWYRQAPGKERELVATITSGGSTNYADSVKGRFTISRDNAKNTVYLQMNSLKPEDTAVYYCAARTYWFPDIYPGLGMDYWGQGTQVTVSS | low polyreactivity
QVQLVESGGGLVQAGGSLRLSCAASGIILSGYAMGWYRQAPGKDRELVAAIRRGGSTYYADSVKGRFTISRDNAKNTVYLQMNSLKPEDTAVYYCNAYSSRKVKWWDDYWGQGTQVTVSS | high polyreactivity
QVQLVESGGGFVQAGGSLRLSCAASGRIFRTNAMGWYRQAPGKERELVAAITSSGTRTYYADSVKGRFTISRDNAKNTVYLQMNSLKPEDTAVYYCAAGGGHSMYYWGQGTQVTVSS | high polyreactivity
QVQVESGGGLVQAGGSLRLSCAASGSIIDQYVMGWYRQAPGKERELVAAISRGGRTYYADSVKGRFTISRDNAKNTVYLQMNSLKPEDTAVYYCAARSDVRGFDYWGQGTQVTVSS | low polyreactivity
